Results as given in patent publication US7094891 (CENTER FOR TRANSLATION RESEARCH IN CANCER, dated 2006).

Target: T1, Human Replication Protein A 32 (RPA32) (human, UniProt P15927 1-270, limits assumed)
T1 construct: Used in the yeast two-hybrid system; also called Replication Protein A 32KD subunit; 32-kDa middle subunit of RPA
Test: yeast two-hybrid system (method named in paragraph 31)

T1 sequence (P15927 whole entry): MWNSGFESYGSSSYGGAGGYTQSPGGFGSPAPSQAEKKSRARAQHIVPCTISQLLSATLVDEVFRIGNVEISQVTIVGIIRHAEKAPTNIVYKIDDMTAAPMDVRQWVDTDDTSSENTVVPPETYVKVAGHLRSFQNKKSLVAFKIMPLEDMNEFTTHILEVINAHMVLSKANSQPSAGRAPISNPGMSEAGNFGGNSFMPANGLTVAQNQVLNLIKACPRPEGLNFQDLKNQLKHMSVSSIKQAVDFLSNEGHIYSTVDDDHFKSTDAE

- binding result: binds
B1: replication protein A binding transcriptional activator 1 (RBT1) (other)
chain: MEGGLKRKHSDLEEEEERWEWSPAGLQSYQQALLRISLDKVQRSLGPRAPSLRRHVLIHNTLQQLQAALRLAPAPALPPEPLFLGEEDFSLSATIGSILRELDTSMDGTEPPQNPVTPLGLQNEVPPQPDPVFLEALSSRYLGDSGLDDFFLDIDTSAVEKEPARAPPEPPHNLFCAPGSWEWNELDHIMEIILGS
notes: Open reading frame of 196 amino acids
